Assay results: patent US20090304719A1
Where no end group is shown, it is not given here. CPX display scaffold = circularly permuted E. coli OmpX display scaffold

Assays:
VEGF [1] = biological target: VEGF (UniProt P15692); experiment: FACS, clone displayed on E. coli (CPX), labeled VEGF; with MMP-2 against without (FIG. 23)
VEGF [2] = biological target: VEGF (UniProt P15692); experiment: FACS, clone displayed on E. coli (CPX), labeled VEGF; MMP-2 treated against untreated (FIG. 25)
anti-VCAM-1 scFv = experiment: FACS, peptide displayed on bacteria, 50 nM biotinylated anti-VCAM scFv then 1 nM anti-biotin PE; background without scFv printed as 142

VEGF, sequence (P15692 other isoform, or with tags, fused parts or gaps limits assumed): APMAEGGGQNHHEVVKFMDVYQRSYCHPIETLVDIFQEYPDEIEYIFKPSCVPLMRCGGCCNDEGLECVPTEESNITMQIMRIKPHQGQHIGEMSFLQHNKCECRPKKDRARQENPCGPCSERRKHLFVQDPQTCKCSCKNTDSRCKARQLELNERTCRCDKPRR

fold increase in fluorescence in the presence of MMP-2 (VEGF [1]) [fold] | fold increase in fluorescence after enzyme cleavage (VEGF [2]) [fold] | average fluorescence value (anti-VCAM-1 scFv) | Binder
11.8 | 10 |  | GQSGQCEYAFGPLGLAGGGSGNFGYGKWEWDYGKWLEKVGGC-{CPX display scaffold} (designed binder, not shown: large carriers; small tags and cut ends, not fully specified; cysteine pairing not given here) [ABP library clone 2-3B-5]
 |  | 2620 | GVVLTTMNFWDWITV [BBB-08]
